Among the data in patent publication US20230295301A1 (SHANGHAI JUNSHI BIOSCIENCES, published 2023) are binding result, Kd and EC50 values, retold here.

In test [1] the target is T1, BTLA on 293T-BTLA cells (UniProt Q7Z6A9 31-289, limits assumed).
T1 construct: whole, on cells
The test can be described thus: flow cytometry on 293T-BTLA cells. The procedure:
(§1) Then the above cell mixture was incubated with 5 μL of APC-labeled murine secondary antibody (Southern Biotech) at 4° C. for 20 min, and the secondary antibody bound onto the cells was detected. The control antibody was selected from commercially available CTLA4 monoclonal antibody L3D10 (BioLegend) and TIGIT monoclonal antibody MBSA43 (eBioscience).

Test [2] addresses T2, TIGIT on 293T-TIGIT cells (UniProt Q495A1 22-244, limits assumed).
T2 construct: whole, on cells
T2 sequence (looked up): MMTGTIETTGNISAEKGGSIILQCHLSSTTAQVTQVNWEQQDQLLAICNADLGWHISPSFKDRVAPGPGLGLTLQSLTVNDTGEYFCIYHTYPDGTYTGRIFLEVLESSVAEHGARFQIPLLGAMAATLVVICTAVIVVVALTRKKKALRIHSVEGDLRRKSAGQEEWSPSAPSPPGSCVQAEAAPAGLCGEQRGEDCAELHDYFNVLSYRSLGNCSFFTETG
The test can be described thus: flow cytometry on 293T-TIGIT cells. The method, then: as §1

For test [3], the target named is T3, huCTLA-4 (human, UniProt P16410 36-161).
T3 construct: also called human CTLA (huCTLA) antigen; huCTLA4 recombinant protein
T3 sequence: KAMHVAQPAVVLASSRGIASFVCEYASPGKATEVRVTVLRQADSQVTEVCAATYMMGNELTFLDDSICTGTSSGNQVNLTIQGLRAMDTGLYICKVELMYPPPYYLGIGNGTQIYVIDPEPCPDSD
The test can be described thus: ForteBio.

The target in test [4] is T4, huCTLA-4 ECD (his-tag) (human, UniProt P16410 37-162).
T4 construct: also called HX1 hCTLA4 his; HX1 huCTLA4 his; not shown: his-tag
T4 sequence: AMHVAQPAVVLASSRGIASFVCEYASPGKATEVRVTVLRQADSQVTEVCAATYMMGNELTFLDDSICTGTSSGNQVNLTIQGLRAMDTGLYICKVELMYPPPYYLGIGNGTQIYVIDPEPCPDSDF
The test can be described thus: ELISA: huCTLA-4 his coated at 1.0 µg/mL, antibody 2.5-fold dilutions from 1000 ng/mL, HRP goat anti-human IgG (Fc), OD 450 nm; unit from the axis 'Log ng/mL'. The method, then: HX1 hCTLA4 his was diluted with PBS (Hyclone) to 1.0 μg/mL, and the dilution was added to a microplate at 100 μL/well. The plate was let stand in an incubator at 37° C. and coated for 90 min and then washed, and 2% BSA was added to the plate at 200 μL/well. The plate was incubated in an incubator at 37° C. for 90 min and then washed. The chimeric antibodies in Table 3 and the control antibody (ipilimumab) were diluted with a diluent (2% BSA) to 1000 ng/mL. The dilution performed each time was not higher than 10-fold. Then, the chimeric antibodies and the control antibody were serially diluted 2.5-fold on a sample dilution plate. All the chimeric antibody solutions and the control antibody solution were added to a microplate at 100 μL/well. The plate was incubated in an incubator at 37° C. for 60 min and then washed. A horseradish peroxidase (HRP)-conjugated goat anti-human antibody IgG (Sigma, Catalog No. A0170) (Fc specific) was diluted 5000-fold with 2% BSA, and the dilution was added to the microplate at 100 μL/well. The plate was incubated in an incubator at 37° C. for 60 min and then washed. The color development solution TMB was added at 100 μL/well, during which bubbles were avoided. […] Reading (wavelength: 450/620 nm) was done within 10 min using a microplate reader.

For test [5], the target named is T5, huCTLA-4 expressed on cells (human, UniProt P16410 36-223).
T5 construct: the construct in the cells is not described; also called HuCTLA-4-expressing CHO cells; huCTLA-4-expressing Jurkat effector cells
T5 sequence: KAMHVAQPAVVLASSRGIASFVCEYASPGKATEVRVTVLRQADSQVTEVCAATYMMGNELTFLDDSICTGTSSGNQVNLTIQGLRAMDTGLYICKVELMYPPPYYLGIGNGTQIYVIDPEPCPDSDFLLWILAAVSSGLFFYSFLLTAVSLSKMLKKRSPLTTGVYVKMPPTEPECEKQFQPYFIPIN
The test can be described thus: FACS: huCTLA-4-expressing CHO cells, antibody 3-fold dilutions from 10 µg/mL, PE anti-human IgG; unit from the axis 'log(JS007 concentration (ng/mL))'. The procedure:
6.2 FACS Detection of Binding of Chimeric Antibodies to huCTLA-4-Expressing Cells HuCTLA-4-expressing cells (constructed in-house by Junmeng; CHO from ATCC) were co-incubated with each of the chimeric antibodies in Table 3 and the control antibody (ipilimumab) (serially diluted 3-fold from an initial concentration of 10 μg/mL) at room temperature for 30 min, and then a fluorescent secondary antibody (PE-anti human IgG) was added to detect the binding of the chimeric antibodies to the huCTLA-4-expressing cells.

The target in test [6] is T6, huCTLA4 N-his K29A (human, UniProt P16410 37-162).
T6 construct: … changed to …; not shown: N-terminal his-tag
The test can be described thus: ELISA: antigen coated at 1.0 µg/mL, huJS007-47 2.5-fold dilutions from 1000 to 0.042 ng/mL, HRP goat anti-human IgG (Fc), OD 450-620 nm; unit from the axis 'Log:ng/mL'. The procedure:
(§2) The huCTLA-4 mutants used in the ELISA assays included non-mutated HXT huCTLA4 his, and mutated huCTLA4 N-his P27A, huCTLA4 N-his G28A, huCTLA4 N-his K29A and huCTLA4 N-his T31A. HuCTLA-4 his and its mutants were diluted with PBS (Hyclone) to 1.0 μg/mL, and a plate was coated with the dilution, incubated in an incubator at 37° C. for 90 min, washed and then blocked with 2% BSA. After the plate was washed, the monoclonal antibody huJS007-47 (serially diluted 2.5-fold with 2% BSA from 1000 ng/mL to 0.042 ng/mL) was added. The plate was incubated at 37° C. for 60 min and washed. A 1:5000 diluted HRP-conjugated goat anti-human antibody IgG (Fc specific) (Sigma, Catalog No. A0170) was used for detection. The plate was incubated at 37° C. for 60 min and then incubated with HRP substrate TMB (Sigma, Catalog No. T2885) at 37° C. for 15 min for color development. Finally, 2 M of hydrochloric acid was added to terminate the color development; during the addition, bubbles were avoided. Reading (wavelength: 450/620 nm) was done within 10 min using a microplate reader.

Test [7] concerns the target T7, HXT huCTLA4 his (non-mutated) (human, UniProt P16410 37-162).
T7 construct: not shown: his-tag
T7 sequence: T4 sequence
Described as above. The method, then:
as §2

The target of test [8] is T8, huCTLA4 N-his P27A (human, UniProt P16410 37-162).
T8 construct: … changed to …; not shown: N-terminal his-tag
The description is as above. The method, then: as §2

Test [9] concerns the target hCTLA4 Nhis T31A. Described as above. The procedure: as §2
For test [10], the target named is T9, huCTLA4 N-his G28A (human, UniProt P16410 37-162).
T9 construct: … changed to …; not shown: N-terminal his-tag
Description: ELISA: huCTLA4 N-his G28A coated at 1.0 µg/mL, huJS007-47 2.5-fold dilutions from 1000 to 0.042 ng/mL, HRP goat anti-human IgG (Fc), OD 450-620 nm. The procedure:
as §2

B1: 5B9.1 (antibody, V domains shown)
VH: EVQLQQSGPELVKPGASVKMSCKASGYTFTDYYMKWMKQSHGKSLEWIGHINPNNGDTFYNQKFTGKATLTVDKSSSTASMHLNSLTSEDSAVYYCARGGDGRGTWFAYWGQGTLVTVSS
VL: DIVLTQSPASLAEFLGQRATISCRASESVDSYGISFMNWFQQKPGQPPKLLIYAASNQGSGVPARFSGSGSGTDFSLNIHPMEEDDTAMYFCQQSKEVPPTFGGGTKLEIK
notes: Murine hybridoma antibody
For B1, the binding result in [1] and in test [2] was “no binding (tested: 1 µg of hybridoma antibody)” throughout. The same molecule displayed a Kd in test [3] of less than 0.001 nM.

B2: JS007-1 (antibody, V domains shown)
VH: DVQLQESGQGLVKPSQSLSLTCSVTGYSITSGYYWNWIRQFPGNKLEWLGYIGYDGSNYYNPSLKNRISITRDTSKNQFFLKLNSVTSEDTATYFCARNYYSGYFDFWGQGTTLTVSS
VL: DIVMTQSQKFMSTSVGDRVSVTCKASQIVGSYVAWYQQKLGQSPKALIYSTSYRHSGVPDRFTGSGSGTDFTLTISNVQSEDLAEYFCQQHHLPLTFGAGTKLEIK
notes: also called chimeric antibody JS007-1 (1A5.1 VH with 1A5.1 VL)
With B2, the EC50 was roughly 788 µg/mL in test [4] and 0.00418 µg/mL in test [5].

B3: 1A5.1 (antibody, V domains shown)
VH: B2 VH
VL: B2 VL
notes: Murine hybridoma antibody
Consider B3, for which the binding result in test [1] and in [2] was “no binding (tested: 1 µg of hybridoma antibody)” in each case. In [3], the Kd is 1.74 nM.

B4: 3E6.1 (antibody, V domains shown)
VH: EVKLVESGGGLVQPGGSLRLSCATSGFTFTDYYMSWVRQPPGKALEWLGFIRNKANGFTAEYSASVKGRFTISRDNSQSILYLQMNTLRAEDSATYYCARDSLAYPHYYAMDYWGQGTSVTVSS
VL: QIVLTQSPALMSASPGEKVTMTCSASSSVSYMYWYQQKPRSSPKPWIYLTSNLASGVPVRFSGSGSGTSYSLTISSMEAEDAATYYCQQWSSNSFTFGSGTKLEIK
notes: Murine hybridoma antibody
In the case of B4, the binding result in [1] and in test [2] was “no binding (tested: 1 µg of hybridoma antibody)” throughout. This molecule came in with a Kd in test [3] of less than 0.001 nM.

B5: JS007-11 (antibody, V domains shown)
VH: EVQLQQSGAELVKSGASVKLSCTGSGFNIKDTYMHWVKQRPEEGLEWIGRIDPANGNTKSDPKFQGKATITADTSSNTAYLQLSSLTSVDTAVYYCARSMTTDPFTYWGQGTLVTVSS
VL: DIVMTQSQKFMSTSVGDSVSVTCKASQNVGTYVAWYQQKPGQSPKPLIYSTSYRYSGVPDRFTGSGSGTDFTLTISNVQSEDLAEYFCHQYDTYPLTFGAGTKLELK
notes: also called chimeric antibody JS007-11 (4B7.1-1 VH with 4B7.1-1 VL)
B5: the EC50 in test [4] was roughly 4010 µg/mL.

B6: huJS007-47 (antibody, human IgG1, kappa, V domains shown)
VH: QVQLQESGPGLVKPSQTLSLTCTVSAYSITSGYYWNWIRQHPGKGLEWIGYIGYDGSNNYNPSLKSRVTISRDTSKNQFSLKLSSVTAADTAVYYCARDYYSGYFDSWGQGTTLTVSS
VL: DIQMTQSPSSLSASVGDRVTITCRASQNVGTYVAWYQQKPGKVPKPLIYSTSYRYSGVPSRFSGSGSGTDFTLTISSLQPEDVATYFCHQYDTYPLTFGAGTKLELKR
notes: also called JS007 antibody; monoclonal antibody huJS007-47
On to B6, for which the EC50 in [6] worked out at 0.0467 µg/mL; in test [7], 0.0136 µg/mL; in test [8] it was 0.0333 µg/mL; in test [9], 0.0136 µg/mL. The binding result in [10] is “no binding (tested: 1000 ng/mL (log 3))”.
